Reference: patent publication US20240360189A1

Tests used:
[1] = target: FcγRIIIA (CD16) (human) (UniProt P08637); experiment: cell-based or functional assay
[2] = target: CD20 on Daudi lymphoma cells (UniProt P11836); experiment: flow cytometry on Daudi cells, goat anti-human Fc AF647; matched Fc density chosen for the comparison of C3b deposition, concentration not given
CD20 on Daudi lymphoma cells, sequence (P11836 whole entry): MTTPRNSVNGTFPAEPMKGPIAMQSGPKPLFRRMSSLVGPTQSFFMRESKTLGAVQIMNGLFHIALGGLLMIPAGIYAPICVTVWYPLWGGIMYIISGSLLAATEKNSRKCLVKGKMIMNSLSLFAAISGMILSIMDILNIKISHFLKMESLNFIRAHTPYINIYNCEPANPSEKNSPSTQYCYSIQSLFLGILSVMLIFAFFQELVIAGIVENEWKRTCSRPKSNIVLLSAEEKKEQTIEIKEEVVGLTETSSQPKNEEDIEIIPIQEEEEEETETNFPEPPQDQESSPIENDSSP

FcγRIIIA (CD16) (human), sequence (P08637 17-254): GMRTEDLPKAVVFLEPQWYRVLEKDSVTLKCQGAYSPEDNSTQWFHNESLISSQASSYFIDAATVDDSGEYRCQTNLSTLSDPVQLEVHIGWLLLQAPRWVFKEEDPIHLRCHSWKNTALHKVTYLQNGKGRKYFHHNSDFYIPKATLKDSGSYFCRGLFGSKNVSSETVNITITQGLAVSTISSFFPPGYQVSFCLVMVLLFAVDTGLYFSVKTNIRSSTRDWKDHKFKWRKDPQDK

- percentage of phagocytic macrophages, Daudi targets, absence of complement (ADCP) [1]: 8.6%
- percentage of phagocytic macrophages, Daudi targets, presence of complement (ADCP+CDCP) [1]: 24.1%
- MFI anti-Fc [2]: 12200 MFI
Substance: MabThera (rituximab, RTX) (antibody)
